Data published in patent US20260022352A1, “COMPOSITIONS AND METHODS FOR PURIFYING […]” (North Carolina State University, priority 2023, published 2026).

Target: VSV-G-pseudo-typed lentiviral vector particles (vesicular stomatitis virus) (UniProt P03522)
UniProt P03522, sequence (P03522 17-511): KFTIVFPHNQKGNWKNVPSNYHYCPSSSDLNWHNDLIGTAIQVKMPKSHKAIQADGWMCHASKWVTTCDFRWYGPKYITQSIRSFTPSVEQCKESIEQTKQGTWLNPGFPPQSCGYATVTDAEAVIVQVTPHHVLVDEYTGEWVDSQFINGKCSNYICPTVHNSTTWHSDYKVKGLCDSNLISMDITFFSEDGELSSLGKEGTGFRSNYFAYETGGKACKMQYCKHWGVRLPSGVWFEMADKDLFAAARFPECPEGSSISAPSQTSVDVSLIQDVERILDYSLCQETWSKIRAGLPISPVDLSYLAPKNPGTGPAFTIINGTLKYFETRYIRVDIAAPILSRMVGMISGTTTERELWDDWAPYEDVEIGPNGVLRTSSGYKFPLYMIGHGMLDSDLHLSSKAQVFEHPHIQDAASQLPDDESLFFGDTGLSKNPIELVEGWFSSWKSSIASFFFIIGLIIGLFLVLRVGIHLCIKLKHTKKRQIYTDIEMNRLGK

Sequence | capacity [TU/mL] | LVV adsorbed [TU/mL]
FEKISAAE (peptide) | 5e+08 | –
GKEAAFAA (peptide) | – | > 1e+09
